Experimental data: US20050221459

Row | Substance | Turnover numbers under the optimal substrate concentrations (Ras-CVLS (SEQ ID NO: 3)) [min⁻¹] | substrate specificity characterized by enzymatic assays (Ras-CVLS (SEQ ID NO: 3)) | Turnover numbers under the optimal substrate concentrations (Ras-CVLL (SEQ ID NO: 4)) [min⁻¹]
1 | Human protein farnesyltransferase (hFTase) | 1 | – | –
2 | W102T mutant of human FTase (W102β converted to threonine) | 0.59 | creating an FTase enzyme greatly preferring GGPP over FPP as its isoprenoid substrate without significantly altering Ca1a2X sequence specificity | –
3 | Wild-type GGTase-I used in the prenylation assay of Example 3 | – | – | 0.65
